The results in this text go back to patent publication US20190032033A1.

β1AR-WT (wild type-like turkey β1 adrenergic receptor construct) (turkey), sequence (P07700 other isoform, or with tags, fused parts or gaps limits assumed): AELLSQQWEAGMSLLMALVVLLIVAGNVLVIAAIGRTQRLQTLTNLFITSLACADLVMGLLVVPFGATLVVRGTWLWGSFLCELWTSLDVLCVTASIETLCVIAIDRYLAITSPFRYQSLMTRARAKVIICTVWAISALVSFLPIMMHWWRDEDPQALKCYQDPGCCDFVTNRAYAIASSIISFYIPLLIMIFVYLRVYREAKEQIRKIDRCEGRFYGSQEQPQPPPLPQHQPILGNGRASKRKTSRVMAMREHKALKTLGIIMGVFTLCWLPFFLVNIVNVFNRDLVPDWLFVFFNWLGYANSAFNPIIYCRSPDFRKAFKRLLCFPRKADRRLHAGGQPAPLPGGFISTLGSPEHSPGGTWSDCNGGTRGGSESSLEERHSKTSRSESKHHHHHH
wild type A2AR in HEK293 cell membranes, sequence (P29274 whole entry): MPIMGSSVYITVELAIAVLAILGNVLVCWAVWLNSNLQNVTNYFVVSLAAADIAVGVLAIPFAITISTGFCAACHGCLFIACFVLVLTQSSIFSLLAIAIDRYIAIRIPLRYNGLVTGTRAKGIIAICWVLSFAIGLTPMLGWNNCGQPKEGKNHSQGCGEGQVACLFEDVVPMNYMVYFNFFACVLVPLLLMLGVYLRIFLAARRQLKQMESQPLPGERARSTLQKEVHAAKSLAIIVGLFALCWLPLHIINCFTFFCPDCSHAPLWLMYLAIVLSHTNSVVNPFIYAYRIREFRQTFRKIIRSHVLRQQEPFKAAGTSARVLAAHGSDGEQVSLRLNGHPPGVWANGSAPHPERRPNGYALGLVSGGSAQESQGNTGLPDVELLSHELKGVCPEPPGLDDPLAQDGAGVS

One assay has as its target β84 (minimally thermostabilised β1AR construct of Example 2) (UniProt P07700). In words: cell-based or functional assay.
For “GTPase domain with βγ-dimer and Nb35 (from UniProt P62873 2-340; P59768 2-71)”, the isoprenaline IC50 of β84, 20 °C (alone […] µM) came to 0.206 µM.

Consider “Gs-Nb35 (non-lipidated heterotrimeric Gs with nanobody Nb35) (from UniProt P62873 2-340; P59768 2-71)”, for which the isoprenaline IC50 of β84 (alone […] µM) was 0.068 µM.

With “Gαs GTPase domain A48D (from UniProt P63092 45-394)”, the isoprenaline IC50 of β84, 4 °C came out at 185 nM and the isoprenaline IC50 of β84, 20 °C turned out to be 1800 nM.

Substance “Gαs GTPase domain A249D (from UniProt P63092 45-394)” displayed an isoprenaline IC50 of β84, 4 °C of 15 nM and an isoprenaline IC50 of β84, 20 °C of 53 nM.

“Gαs GTPase domain A249E (from UniProt P63092 45-394)” registered an isoprenaline IC50 of β84, 4 °C of 104 nM and an isoprenaline IC50 of β84, 20 °C of 582 nM.

In turn, “Gαs GTPase domain A249S (from UniProt P63092 45-394)” showed an isoprenaline IC50 of β84, 4 °C of 146 nM and an isoprenaline IC50 of β84, 20 °C of 1600 nM.

With “Gαs GTPase domain C237E (from UniProt P63092 45-394)”, the isoprenaline IC50 of β84, 4 °C was determined as 93 nM and the isoprenaline IC50 of β84, 20 °C was found to be 1900 nM.

Regarding “Gαs GTPase domain D240G (from UniProt P63092 45-394)”, the isoprenaline IC50 of β84, 4 °C worked out at 510 nM and the isoprenaline IC50 of β84, 20 °C was 4400 nM.

“Gαs GTPase domain D295N (from UniProt P63092 45-394)” came in with an isoprenaline IC50 of β84, 4 °C of 2400 nM.

On to “Gαs GTPase domain E50N (from UniProt P63092 45-394)”, for which the isoprenaline IC50 of β84, 4 °C is 55 nM and the isoprenaline IC50 of β84, 20 °C stood at 1100 nM.

Substance “Gαs GTPase domain F208N (from UniProt P63092 45-394)” gave an isoprenaline IC50 of β84, 4 °C of 250 nM and an isoprenaline IC50 of β84, 20 °C of 1300 nM.

“Gαs GTPase domain G49D (from UniProt P63092 45-394)” came in with an isoprenaline IC50 of β84, 4 °C of 37 nM and an isoprenaline IC50 of β84, 20 °C of 428 nM.

“Gαs GTPase domain G49D/E50N (from UniProt P63092 45-394)”: the isoprenaline IC50 of β84, 4 °C was determined as 44 nM and the isoprenaline IC50 of β84, 20 °C came out at 364 nM.

Substance “Gαs GTPase domain G226A (from UniProt P63092 45-394)” returned an isoprenaline IC50 of β84, 4 °C of 127 nM and an isoprenaline IC50 of β84, 20 °C of 1200 nM.

In turn, “Gαs GTPase domain H41I (from UniProt P63092 45-394)” had an isoprenaline IC50 of β84, 4 °C of 58 nM and an isoprenaline IC50 of β84, 20 °C of 589 nM.

For the substance “Gαs GTPase domain H41L (from UniProt P63092 45-394)”, the isoprenaline IC50 of β84, 4 °C worked out at 285 nM and the isoprenaline IC50 of β84, 20 °C was 3900 nM.

“Gαs GTPase domain H41M (from UniProt P63092 45-394)” showed an isoprenaline IC50 of β84, 4 °C of 307 nM and an isoprenaline IC50 of β84, 20 °C of 1800 nM.

In turn, “Gαs GTPase domain H41V (from UniProt P63092 45-394)” showed an isoprenaline IC50 of β84, 4 °C of 77 nM and an isoprenaline IC50 of β84, 20 °C of 737 nM.

“Gαs GTPase domain L270N/I348N (from UniProt P63092 45-394)” yielded an isoprenaline IC50 of β84, 4 °C of 4300 nM.

“Gαs GTPase domain L272D (from UniProt P63092 45-394)”: the isoprenaline IC50 of β84, 4 °C was determined as 10 nM and the isoprenaline IC50 of β84, 20 °C was 464 nM.

Consider “Gαs GTPase domain L272E (from UniProt P63092 45-394)”, for which the isoprenaline IC50 of β84, 4 °C was determined as 42 nM and the isoprenaline IC50 of β84, 20 °C worked out at 110 nM.

Consider “Gαs GTPase domain N279D/Q235K (from UniProt P63092 45-394)”, for which the isoprenaline IC50 of β84, 4 °C worked out at 102 nM and the isoprenaline IC50 of β84, 20 °C is 2000 nM.

The substance “Gαs GTPase domain N279E/I235K (from UniProt P63092 45-394)” gave an isoprenaline IC50 of β84, 4 °C of 1200 nM and an isoprenaline IC50 of β84, 20 °C of 2800 nM.

“Gαs GTPase domain R199D (from UniProt P63092 45-394)” returned an isoprenaline IC50 of β84, 4 °C of 109 nM and an isoprenaline IC50 of β84, 20 °C of 1800 nM.

Turning to “Gαs GTPase domain R199K (from UniProt P63092 45-394)”, the isoprenaline IC50 of β84, 4 °C turned out to be 108 nM and the isoprenaline IC50 of β84, 20 °C was determined as 1900 nM.

“Gαs GTPase domain R201A (from UniProt P63092 45-394)” registered an isoprenaline IC50 of β84, 4 °C of 46 nM and an isoprenaline IC50 of β84, 20 °C of 2200 nM.

In turn, “Gαs GTPase domain R356D (from UniProt P63092 45-394)” showed an isoprenaline IC50 of β84, 4 °C of 161 nM and an isoprenaline IC50 of β84, 20 °C of 3300 nM.

With “Gαs GTPase domain R356S (from UniProt P63092 45-394)”, the isoprenaline IC50 of β84, 4 °C amounted to 229 nM and the isoprenaline IC50 of β84, 20 °C was found to be 2800 nM.

On to “Gαs GTPase domain S54N (from UniProt P63092 45-394)”, for which the isoprenaline IC50 of β84, 4 °C turned out to be 462 nM.

In turn, “Gαs GTPase domain S252D (from UniProt P63092 45-394)” had an isoprenaline IC50 of β84, 4 °C of 21 nM and an isoprenaline IC50 of β84, 20 °C of 142 nM.

Substance “Gαs GTPase domain S252E (from UniProt P63092 45-394)” registered an isoprenaline IC50 of β84, 4 °C of 57 nM and an isoprenaline IC50 of β84, 20 °C of 575 nM.

“Gαs GTPase domain S275D (from UniProt P63092 45-394)” gave an isoprenaline IC50 of β84, 4 °C of 136 nM and an isoprenaline IC50 of β84, 20 °C of 2000 nM.

Turning to “Gαs GTPase domain S286C/I382C (from UniProt P63092 45-394)”, the isoprenaline IC50 of β84, 4 °C was 4200 nM and the isoprenaline IC50 of β84, 20 °C came out at 7000 nM.

In turn, “Gαs GTPase domain V36D/N218K (from UniProt P63092 45-394)” displayed an isoprenaline IC50 of β84, 4 °C of 115 nM.

For the substance “Gαs GTPase domain V36D/N218K/T40A (from UniProt P63092 45-394)”, the isoprenaline IC50 of β84, 4 °C is 551 nM and the isoprenaline IC50 of β84, 20 °C came out at 2400 nM.

Take “Gαs GTPase domain V36D/N218K/T40D (from UniProt P63092 45-394)”: the isoprenaline IC50 of β84, 4 °C was 427 nM and the isoprenaline IC50 of β84, 20 °C came to 3200 nM.

The substance “Gαs GTPase domain W234A/F238A (from UniProt P63092 45-394)” returned an isoprenaline IC50 of β84, 4 °C of 584 nM and an isoprenaline IC50 of β84, 20 °C of 4000 nM.

“Gαs GTPase domain Y37D (from UniProt P63092 45-394)”: the isoprenaline IC50 of β84, 4 °C was 81 nM and the isoprenaline IC50 of β84, 20 °C was found to be 2000 nM.

In turn, “Gαs GTPase domain Y37R/R42D (from UniProt P63092 45-394)” showed an isoprenaline IC50 of β84, 4 °C of 2300 nM.

For the substance “Gαs GTPase domain parental construct (Example 2) (from UniProt P63092 45-394)”, the isoprenaline IC50 of β84, 4 °C came to 136 nM.

For the substance Gαs GTPase domain Δ227-230/GG linker, the isoprenaline IC50 of β84, 4 °C was found to be 34 nM and the isoprenaline IC50 of β84, 20 °C turned out to be 799 nM.

Take Gαs GTPase domain Δ254-263: the isoprenaline IC50 of β84, 4 °C is 31 nM and the isoprenaline IC50 of β84, 20 °C was found to be 30 nM.

Substance Gαs GTPase domain Δ254-263/Y253P had an isoprenaline IC50 of β84, 4 °C of 23 nM and an isoprenaline IC50 of β84, 20 °C of 142 nM.

Gαs GTPase domain Δ255-262/G linker yielded an isoprenaline IC50 of β84, 4 °C of 1300 nM.

Nb80 (VHH) returned an isoprenaline IC50 of β84 (alone […] µM) of 0.016 µM.

Substance “isolated GTPase domain of Gαs (Example 2, FIG. 14)” gave an isoprenaline IC50 of β84, 4 °C (alone […] µM) of 0.253 µM and an isoprenaline IC50 of β84, 20 °C (alone […] µM) of 3.4 µM.

“non-lipidated heterotrimeric Gs (Gαsβ1γ2) (from UniProt P62873 2-340; P59768 2-71)” registered an isoprenaline IC50 of β84 (alone […] µM) of 1.4 µM.

The target of a further assay is near wild type β1AR construct (β6) (UniProt P07700). As to the kind of experiment: cell-based or functional assay.
near wild type β1AR construct (β6), sequence (P07700 33-424): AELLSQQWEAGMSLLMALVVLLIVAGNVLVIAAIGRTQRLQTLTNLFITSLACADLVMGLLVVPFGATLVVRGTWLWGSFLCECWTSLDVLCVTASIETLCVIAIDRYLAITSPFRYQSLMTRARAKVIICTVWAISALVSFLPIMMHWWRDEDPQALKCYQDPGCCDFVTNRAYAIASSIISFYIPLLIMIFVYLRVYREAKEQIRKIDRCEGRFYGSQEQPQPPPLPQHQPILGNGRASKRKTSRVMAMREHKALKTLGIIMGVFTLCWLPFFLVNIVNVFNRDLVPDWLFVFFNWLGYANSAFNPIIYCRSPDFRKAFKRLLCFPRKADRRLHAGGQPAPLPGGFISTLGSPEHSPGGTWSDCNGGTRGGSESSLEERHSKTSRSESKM
As for Nb80 (VHH), the fold increase of isoprenaline affinity of the near wild-type β1AR was determined as 3.5 fold and the isoprenaline IC50 of β6 (alone […] nM) worked out at 51 nM.

Another assay deals with β1AR-84 (minimally thermostabilised turkey β1 adrenergic receptor construct) (turkey) (UniProt P07700). As to the kind of experiment: cell-based or functional assay.
β1AR-84 (minimally thermostabilised turkey β1 adrenergic receptor construct) (turkey), sequence (P07700 other isoform, or with tags, fused parts or gaps): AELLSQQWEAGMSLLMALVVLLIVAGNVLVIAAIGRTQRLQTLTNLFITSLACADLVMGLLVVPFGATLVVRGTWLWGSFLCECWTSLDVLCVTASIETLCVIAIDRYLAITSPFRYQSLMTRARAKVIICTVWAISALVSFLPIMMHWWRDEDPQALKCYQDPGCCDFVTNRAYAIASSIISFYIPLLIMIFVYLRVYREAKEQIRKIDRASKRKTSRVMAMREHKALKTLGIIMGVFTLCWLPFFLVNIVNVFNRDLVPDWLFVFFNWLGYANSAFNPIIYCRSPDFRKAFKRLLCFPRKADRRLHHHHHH
Consider “Gs-Nb35 (non-lipidated heterotrimeric Gs with nanobody Nb35) (from UniProt P62873 2-340; P59768 2-71)”, for which the fold shift of isoprenaline Ki of β1AR-84 was found to be 163 fold; the isoprenaline Ki of DDM-solubilised β1AR-84 (alone […] µM) turned out to be 0.023 µM; the isoprenaline Ki of β1AR-84, 20 °C (alone […] nM) is 16 nM.

Take Nb80 (VHH): the fold shift of isoprenaline Ki of β1AR-84 is 93 fold; the isoprenaline Ki of DDM-solubilised β1AR-84 (alone […] µM) was 0.083 µM; the isoprenaline Ki of β1AR-84, 20 °C (alone […] nM) turned out to be 28 nM.

On to “non-lipidated heterotrimeric Gs (Gαsβ1γ2) (from UniProt P62873 2-340; P59768 2-71)”, for which the fold shift of isoprenaline Ki of β1AR-84 was 9.6 fold; the isoprenaline Ki of β1AR-84, 4 °C (alone […] nM) was found to be 419 nM; the isoprenaline Ki of β1AR-84, 20 °C (alone […] nM) came out at 271 nM; the isoprenaline Ki of β1AR-84 with 0.25 mM GTPγS (alone 3.0 µM) was determined as 2.7 µM.

A further assay addresses wild type A2AR in HEK293 cell membranes (UniProt P29274). As to the kind of experiment: cell-based or functional assay.
The substance “Gs-Nb35 (non-lipidated heterotrimeric Gs with nanobody Nb35) (from UniProt P62873 2-340; P59768 2-71)” registered an NECA Ki of A2AR in HEK293 membranes, 100 mM NaCl (alone 4.6 µM) of 340 nM.

The next assay addresses β1AR-WT (wild type-like turkey β1 adrenergic receptor construct) (turkey) (UniProt P07700). In words: cell-based or functional assay.
Take “Gs-Nb35 (non-lipidated heterotrimeric Gs with nanobody Nb35) (from UniProt P62873 2-340; P59768 2-71)”: the apparent Tm of β1AR-WT complex in DDM (receptor alone 25.9 °C) worked out at 35.8 °C, the apparent Tm of β1AR-WT complex in decylmaltoside (receptor alone 20.4 °C) came to 31.1 °C, the apparent Tm of β1AR-WT complex in nonylglucoside (uncoupled receptor did not survive) came to 19 °C and the apparent Tm of β1AR-WT complex in octylglucoside (uncoupled receptor did not survive) turned out to be 13.6 °C. Also, the fold shift of isoprenaline Ki of β1AR-WT was found to be 5.9 fold, the isoprenaline Ki of membrane-embedded β1AR-WT (alone 40 nM) is 6.8 nM and the norepinephrine Ki of β1AR-WT (alone 158 nM) was determined as 0.36 nM.

Consider Nb80 (VHH), for which the apparent Tm of β1AR-WT complex in DDM (receptor alone 25.9 °C) amounted to 32 °C, the apparent Tm of β1AR-WT complex in decylmaltoside (receptor alone 20.4 °C) was found to be 28.6 °C, the apparent Tm of β1AR-WT complex in nonylglucoside (uncoupled receptor did not survive) amounted to 16.7 °C and the apparent Tm of β1AR-WT complex in octylglucoside (uncoupled receptor did not survive) is 14.3 °C. Moreover, the fold shift of isoprenaline Ki of β1AR-WT stood at 6.9 fold, the isoprenaline Ki of membrane-embedded β1AR-WT (alone 40 nM) is 5.8 nM and the norepinephrine Ki of β1AR-WT (alone 158 nM) was found to be 0.7 nM.

Take “non-lipidated heterotrimeric Gs (Gαsβ1γ2) (from UniProt P62873 2-340; P59768 2-71)”: the fold shift of isoprenaline Ki of β1AR-WT is 2.4 fold and the isoprenaline Ki of membrane-embedded β1AR-WT (alone 40 nM) is 17 nM.
